The target in test [1] is CS protein on PfPb transgenic sporozoites (P. falciparum CS repeats in the context of the P. berghei CS protein). Put plainly: cell-based or functional assay.
A further test deals with DR 13 molecules (UniProt P01903). Put plainly: peptide competition assay with DR 13 molecules.

Turning to MAB 2A10 (antibody), the inhibition in TSNA, about 25 µg antibody in test [1] came out at 96%.

As for “P. falciparum peptide (T* universal epitope of the CS protein)”, the IC50 (commonly the concentration that gives 50% inhibition) with DR 13 molecules was 1800 nM.

For the origin of these results see patent publication US20110008383A1.
